According to FireProtDB (doi:10.1073/pnas.0911904107):

B1: Lipid A palmitoyltransferase PagP, P37001 (parent)
chain: MNVSKYVAIFSFVFIQLISVGKVFANADEWMTTFRENIAQTWQQPEHYDLYIPAITWHARFAYDKEKTDRYNERPWGGGFGLSRWDEKGNWHGLYAMAFKDSWNKWEPIAGYGWESTWRPLADENFHLGLGFTAGVTARDNWNYIPLPVLLPLASVGYGPVTFQMTYIPGTYNNGNVYFAWMRFQF

Variants of: B1
Settings: Escherichia coli (strain K12), pH 8, 25 °C, Urea, CD, structure 1THQ, whole UniProt chain shown
[1] = Sodium phosphate 50 mM, reversible: Yes
[2] = sodium phosphate buffer, transition: 2, reversible: yes

Variant	ddG of mutation (higher = less stable) [1] [kcal/mol]	denaturant midpoint (higher = more stable) [1] [M]	unfolding free energy [1] [kcal/mol]	ddG of mutation (higher = less stable) [2] [kcal/mol]	denaturant midpoint (higher = more stable) [2] [M]	unfolding free energy [2] [kcal/mol]
MNVSKYVAIFSFVFIQLISVGKVFANADEWMTTFRENIAQTWQQPEHYDLYIPAITWHARFAYDKEKTDRYNERPWGGGFGLSRWDEKGNWHGLYAMAFKDSWNKWEPIAGFGWESTWRPLADENFHLGLGFTAGVTARDNWNYIPLPVLLPLASVGYGPVTFQMTYIPGTYNNGNVYFAWMRFQF [Y112F]	1.37	7.93	13	6.45	7.93	7.93
MNVSKYVAIFSFVFIQLISVGKVFANADEWMTTFRENIAQTWQQPEHYDLYIPAITWHARFAYDKEKTDRYNERPWGGGFGLSRWDEKGNWHGLYAMAFKDSWNKWEPIAGYGWESTWRPLADENFHLGLGFAAGVTARDNWNYIPLPVLLPLASVGYGPVTFQMTYIPGTYNNGNVYFAWMRFQF [T133A]	0.4	8.52	14	5.86	8.52	8.52
MNVSKYVAIFSFVFIQLISVGKVFANADEWMTTFRENIAQTWQQPEHYDLYIPAITWHARFAYDKEKTDRYNERPWGGGFGLSRWDEKGNWHGLYAMAFKDSWNKWEPIAGYGWESTWAPLADENFHLGLGFTAGVTARDNWNYIPLPVLLPLASVGYGPVTFQMTYIPGTYNNGNVYFAWMRFQF [R119A]	1.53	7.84	12.8	6.54	7.84	7.84
MNVSKYVAIFSFVFIQLISVGKVFANADEWMTTFRENIAQTWQQPEHYDLYIPAITWHARFAYDKEKTDRYNERPWGGGFGLSRWDEKGNWHGLYAMAFKDSWNKWEPIGGYGWESTWRPLADENFHLGLGFTAGVTARDNWNYIPLPVLLPLASVGYGPVTFQMTYIPGTYNNGNVYFAWMRFQF [A110G]	0.87	8.24	13.5			
MNVSKYVAIFSFVFIQLISVGKVFANADEWMTTFRENIAQTWQQPEHYDLYIPAITWHARFAYDKEKTDRYNERPWGGGFGLSRWDEKGNWHGLYAMAFKDSWNKWEPIAGYGWESTWRPLADENFHLGLGFTAGVTARDNWNYIPLPVLLPLASVGYGPVAFQMTYIPGTYNNGNVYFAWMRFQF [T162A]	0.51	8.46	13.9	5.92	8.46	8.46
MNVSKYVAIFSFVFIQLISVGKVFANADEWMTTFRENIAQTWQQPEHYDLYIPAITWHARFAYDKEKTDRYNERPWGGGAGLSRWDEKGNWHGLYAMAFKDSWNKWEPIAGYGWESTWRPLADENFHLGLGFTAGVTARDNWNYIPLPVLLPLASVGYGPVTFQMTYIPGTYNNGNVYFAWMRFQF [F80A]	1.05	8.13	13.3	6.25	8.13	8.13
MNVSKYVAIFSFVFIQLISVGKVFANADEWMTTFRENIAQTWQQPEHYDLYIPAITWHARFAYDKEKTDRYNERPWGGGFGLSRWDEKGNWHGLYAMAFKDSWNKWEPIAGYGWESTWRPLADENFHLGLGFTAGVTARDNWNYIPLPVLLPLASVGYGPVTFAMTYIPGTYNNGNVYFAWMRFQF [Q164A]	0.97	8.18	13.4	6.2	8.18	8.18
MNVSKYVAIFSFVFIQLISVGKVFANADEWMTTFRENIAQTWQQPEHYDLYIPAITWHARFAYDKEKTDRYNERPWGGGFGLSRWDEKGNWHGLYAMAFKDSWNKWEPIAGYGWASTWRPLADENFHLGLGFTAGVTARDNWNYIPLPVLLPLASVGYGPVTFQMTYIPGTYNNGNVYFAWMRFQF [E115A]	0.66	8.37	13.7	6.01	8.37	8.37
